According to patent US20130059793A1 (University of Texas, published 2013):
Ends that are not written are not given here.

B1: CVRAC-displaying phage (peptide)
peptide: CVRAC
modifications: not fully specified (bridges); also: cyclic, ring type not given here, displayed on phage
notes: the phage coat protein that carries the insert is not described; also called CVRAC-phage; phage displaying the cyclic peptide CVRAC
B2: CVAAC-displaying phage (peptide)
peptide: CVAAC
modifications: not fully specified (bridges); also: cyclic, ring type not given here, displayed on phage
notes: coat protein fusion not described; also called CVAAC-phage; alanine scanning control

Key:
[1] = molecular target: T1, bovine serum albumin (BSA) (bovine, UniProt P02769 25-607); test: phage binding assay on immobilized proteins
T1 construct: Negative control protein

[2] = molecular target: T2, VEGF (UniProt P15692-4 27-191, limits assumed); test: phage binding assay on proteins coated onto microtiter wells
T2 construct: Negative control protein; also called negative control protein VEGF

[3] = molecular target: T3, transforming growth factor alpha (TGF-α) (UniProt P01135 40-89); test: as above
T3 construct: Bought; also called Tumor Growth Factor alpha

[4] = molecular target: T4, epidermal growth factor (EGF) (UniProt P01133 971-1023); test: as above
T4 construct: Bought
T4 sequence (P01133 971-1023 limits assumed): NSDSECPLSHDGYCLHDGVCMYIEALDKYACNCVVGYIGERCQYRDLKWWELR

T2 sequence (P15692 other isoform, or with tags, fused parts or gaps limits assumed): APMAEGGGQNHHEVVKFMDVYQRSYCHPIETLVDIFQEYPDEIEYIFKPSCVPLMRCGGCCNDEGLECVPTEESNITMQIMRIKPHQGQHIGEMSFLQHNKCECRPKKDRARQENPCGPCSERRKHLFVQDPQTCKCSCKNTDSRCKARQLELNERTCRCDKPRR
T1 sequence (P02769 25-607 limits assumed): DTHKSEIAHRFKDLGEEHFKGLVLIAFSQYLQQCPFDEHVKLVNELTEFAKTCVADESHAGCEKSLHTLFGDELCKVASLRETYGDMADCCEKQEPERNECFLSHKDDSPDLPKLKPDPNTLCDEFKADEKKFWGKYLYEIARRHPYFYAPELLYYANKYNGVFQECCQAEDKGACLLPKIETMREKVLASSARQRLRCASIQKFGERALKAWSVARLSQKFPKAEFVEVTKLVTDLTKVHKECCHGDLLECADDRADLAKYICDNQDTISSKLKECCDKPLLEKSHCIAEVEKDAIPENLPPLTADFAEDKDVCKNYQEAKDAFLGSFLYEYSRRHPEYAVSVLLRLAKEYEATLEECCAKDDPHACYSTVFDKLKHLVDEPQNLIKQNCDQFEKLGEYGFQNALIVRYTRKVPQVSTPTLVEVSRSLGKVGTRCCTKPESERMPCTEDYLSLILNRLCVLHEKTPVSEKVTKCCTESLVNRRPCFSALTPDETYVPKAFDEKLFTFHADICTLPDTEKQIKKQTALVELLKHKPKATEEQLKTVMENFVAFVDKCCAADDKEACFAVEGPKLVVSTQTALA

Binder	binding result [1]	binding result [2]	binding result [3]	binding result [4]
B1	no binding	no binding		
B2			no binding	no binding
